Test [1] concerns the target T1, human CD4, cell-expressed (human, UniProt P01730 26-458).
T1 construct: whole, on cells
Kind of test: flow cytometry on MOLM-13 cells (CD4, no IL12R or IL23R), upper right panel. (A flow cytometer gives signals particle by particle.)

Test [2] concerns the target T2, human IL-23R, cell-expressed (human, UniProt Q5VWK5 24-629).
T2 sequence (looked up): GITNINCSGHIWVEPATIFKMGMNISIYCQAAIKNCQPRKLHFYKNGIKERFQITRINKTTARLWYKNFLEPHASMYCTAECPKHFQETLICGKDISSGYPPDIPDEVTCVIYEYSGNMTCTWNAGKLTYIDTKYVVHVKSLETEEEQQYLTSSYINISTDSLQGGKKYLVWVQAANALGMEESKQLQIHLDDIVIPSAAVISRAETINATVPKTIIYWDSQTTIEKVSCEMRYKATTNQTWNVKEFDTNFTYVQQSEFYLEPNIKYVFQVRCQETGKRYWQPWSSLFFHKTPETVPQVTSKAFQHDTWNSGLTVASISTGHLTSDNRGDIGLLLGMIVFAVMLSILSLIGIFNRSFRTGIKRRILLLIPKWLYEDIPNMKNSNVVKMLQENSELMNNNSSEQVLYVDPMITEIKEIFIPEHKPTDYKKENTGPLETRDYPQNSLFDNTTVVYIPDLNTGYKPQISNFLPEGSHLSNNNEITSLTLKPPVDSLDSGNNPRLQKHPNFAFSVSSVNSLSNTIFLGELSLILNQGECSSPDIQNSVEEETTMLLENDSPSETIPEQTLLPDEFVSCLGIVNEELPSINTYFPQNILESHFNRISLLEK
Kind of test: cell-based or functional assay.

Test [3] deals with T3, human IL-23R extracellular domain Fc-fusion (human, UniProt Q5VWK5 24-355).
T3 construct: extracellular domain; bought; also called IL-23R-Fc
T3 sequence (looked up): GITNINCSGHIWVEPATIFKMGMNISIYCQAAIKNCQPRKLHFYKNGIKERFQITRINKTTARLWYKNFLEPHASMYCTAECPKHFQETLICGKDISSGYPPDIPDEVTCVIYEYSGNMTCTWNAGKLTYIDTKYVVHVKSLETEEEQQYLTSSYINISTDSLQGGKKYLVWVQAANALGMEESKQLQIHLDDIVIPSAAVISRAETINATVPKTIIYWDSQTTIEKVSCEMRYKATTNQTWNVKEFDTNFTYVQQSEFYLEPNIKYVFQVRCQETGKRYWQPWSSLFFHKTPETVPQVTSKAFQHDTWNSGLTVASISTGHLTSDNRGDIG
As to the kind of experiment: competition ELISA, coated IL-23 + IL-23R-Fc. On the technique in general: An ELISA detects its analyte on a solid surface through an enzyme-linked reagent.

Test [4] has as its target T3, human IL-23R extracellular domain …. Kind of test: competition ELISA, ratio to monovalent IL23R#20.
The target of test [5] is T1, human CD4, cell-expressed. As to the kind of experiment: flow cytometry on activated T cells of donor D838 (very high CD4), lower left panel.
For test [6], the target named is T4, human IL12Rβ1, cell-expressed (human, UniProt P42701 24-662).
T4 construct: whole, on cells; in the context of the heterodimeric receptor; also called IL12Rb1
Kind of test: flow cytometry on isolated CD8+ T cells of donor D863, anti-Flag detection.

Test [7] addresses T3, human IL-23R extracellular domain …. Kind of test: competition ELISA, ratio to monovalent IL23R#19.
Test [8] has as its target T1, human CD4, cell-expressed. As to the kind of experiment: flow cytometry on activated T cells of donor D838 (very high CD4, moderate IL12R), upper left panel.
Test [9] deals with T5, human IL12Rβ2, cell-expressed (human, UniProt Q99665 24-862).
T5 sequence (looked up): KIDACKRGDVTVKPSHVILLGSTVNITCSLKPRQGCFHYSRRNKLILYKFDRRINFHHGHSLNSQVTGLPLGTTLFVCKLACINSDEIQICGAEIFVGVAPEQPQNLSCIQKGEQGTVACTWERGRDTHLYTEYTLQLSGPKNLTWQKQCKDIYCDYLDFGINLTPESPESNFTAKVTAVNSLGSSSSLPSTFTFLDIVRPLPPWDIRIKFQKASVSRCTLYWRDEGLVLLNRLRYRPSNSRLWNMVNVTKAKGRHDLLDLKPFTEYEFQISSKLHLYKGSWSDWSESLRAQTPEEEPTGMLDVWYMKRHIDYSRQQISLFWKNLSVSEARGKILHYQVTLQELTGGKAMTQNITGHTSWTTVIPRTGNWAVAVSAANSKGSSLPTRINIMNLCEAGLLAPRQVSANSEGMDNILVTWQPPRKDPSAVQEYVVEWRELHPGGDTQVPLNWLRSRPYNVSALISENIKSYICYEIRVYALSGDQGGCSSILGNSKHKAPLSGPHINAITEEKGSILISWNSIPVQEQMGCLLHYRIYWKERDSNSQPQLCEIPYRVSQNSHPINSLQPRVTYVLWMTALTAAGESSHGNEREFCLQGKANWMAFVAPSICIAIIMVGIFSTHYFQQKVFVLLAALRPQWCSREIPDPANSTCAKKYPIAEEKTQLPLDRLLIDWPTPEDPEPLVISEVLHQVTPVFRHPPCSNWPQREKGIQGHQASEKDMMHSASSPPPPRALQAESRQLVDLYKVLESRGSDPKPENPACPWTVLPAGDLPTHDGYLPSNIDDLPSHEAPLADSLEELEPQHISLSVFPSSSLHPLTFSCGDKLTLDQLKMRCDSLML
Kind of test: cell-based or functional assay.

The target of test [10] is T6, human IL12Rβ2 extracellular domain Fc-fusion (human, UniProt Q99665 24-622).
T6 construct: extracellular domain; bought; also called IL12Rβ2-Fc; hIL-12Rβ2-Fc
T6 sequence (looked up): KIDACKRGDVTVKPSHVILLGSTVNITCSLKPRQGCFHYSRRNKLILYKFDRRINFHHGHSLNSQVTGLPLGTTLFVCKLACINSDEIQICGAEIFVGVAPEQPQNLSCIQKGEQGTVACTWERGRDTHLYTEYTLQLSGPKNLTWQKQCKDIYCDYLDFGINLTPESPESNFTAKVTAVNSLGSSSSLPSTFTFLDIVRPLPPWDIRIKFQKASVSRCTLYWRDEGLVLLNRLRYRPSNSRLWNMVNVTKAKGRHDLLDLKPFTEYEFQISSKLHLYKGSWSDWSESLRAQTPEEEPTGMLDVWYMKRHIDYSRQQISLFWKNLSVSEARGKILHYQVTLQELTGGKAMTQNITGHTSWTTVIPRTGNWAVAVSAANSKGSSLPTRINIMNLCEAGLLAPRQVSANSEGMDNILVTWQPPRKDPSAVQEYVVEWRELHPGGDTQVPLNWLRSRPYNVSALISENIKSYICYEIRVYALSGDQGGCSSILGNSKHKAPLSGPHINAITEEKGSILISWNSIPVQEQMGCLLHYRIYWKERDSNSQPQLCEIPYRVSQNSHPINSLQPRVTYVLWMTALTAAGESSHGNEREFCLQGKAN
Kind of test: competition ELISA, ratio to monovalent IL12Rb2#2.

Test [11] addresses T1, human CD4, cell-expressed. As to the kind of experiment: flow cytometry on MOLM-13 cells (CD4, no IL12R or IL23R), upper left panel.
Test [12] deals with T6, human IL12Rβ2 extracellular domain …. Kind of test: competition ELISA, coated IL-12 + IL12Rβ2-Fc.

B1: CD4#8-35GS-IL23R#20 (bispecific antibody)
chain: EVQLVESGGGSVQPGGSLTLSCGTSGRTFNVMGWFRQAPGKEREFVAAVRWSSTGIYYTQYADSVKSRFTISRDNAKNTVYLEMNSLKPEDTAVYYCAADTYNSNPARWDGYDFRGQGTLVTVSSGGGGSGGGGSGGGGSGGGGSGGGGSGGGGSGGGGSEVQLVESGGGLVQAGGSLRLSCAASGRTFSSYAMGWFRQAPGKDREFVAAISWIGESTYYADSVKGRFTISRDNAKNTVYLRMNSLKPEDTAVYYCAADLYYTAYVAAADEYDYWGQGTLVTVSS
notes: also called BI#44; T023200044
As usually defined, the EC50 (read off the curve) is the concentration at which the effect is half-maximal. A lower EC50 (read off the curve) goes with an effect from little substance. What is called IC50 is the concentration needed to halve the response being measured. In the case of B1, the concentration for a half-maximal effect (EC50 (read off the curve)) in test [1] and in test [5] was roughly 1 nM throughout. Moreover, the “IC50, IL-17 release, PBMC D840” value in test [2] came out at 22 nM. Besides, the IC50 in test [3] came out at 15 nM. Besides, the fold ctrl in test [4] was determined as 1.1 fold.

B2: IL23R#19-35GS-CD4#8 (bispecific antibody)
chain: EVQLVESGGGLVQPGGSLTLSCVASGRTFSTDVMGWFRQAPGKEREFVAAHRTSGISTVYAASVKGRFTISRDNAKNTVYLGMKSLKPEDTAVYVCAAGSDASGGYDYWGQGTLVTVSSGGGGSGGGGSGGGGSGGGGSGGGGSGGGGSGGGGSEVQLVESGGGSVQPGGSLTLSCGTSGRTFNVMGWFRQAPGKEREFVAAVRWSSTGIYYTQYADSVKSRFTISRDNAKNTVYLEMNSLKPEDTAVYYCAADTYNSNPARWDGYDFRGQGTLVTVSS
notes: also called BI#42; T023200042
Take B2: the figures for the 50% effective concentration (EC50 (read off the curve)) in [1] and in test [5] were roughly 4 nM and roughly 1 nM, respectively. Further, the 50% inhibitory concentration (IC50) in test [3] was determined as 6.1 nM. The binding result in test [6] is “no binding (tested: 250 nM)”. For the same molecule, the fold ctrl in [7] stood at 0.3 fold.

B3: CD4#8-35GS-IL23R#19 (bispecific antibody)
chain: EVQLVESGGGSVQPGGSLTLSCGTSGRTFNVMGWFRQAPGKEREFVAAVRWSSTGIYYTQYADSVKSRFTISRDNAKNTVYLEMNSLKPEDTAVYYCAADTYNSNPARWDGYDFRGQGTLVTVSSGGGGSGGGGSGGGGSGGGGSGGGGSGGGGSGGGGSEVQLVESGGGLVQPGGSLTLSCVASGRTFSTDVMGWFRQAPGKEREFVAAHRTSGISTVYAASVKGRFTISRDNAKNTVYLGMKSLKPEDTAVYVCAAGSDASGGYDYWGQGTLVTVSS
notes: also called BI#45; T023200045
Regarding B3, in test [1], the “EC50 (read off the curve)” value was roughly 1 nM. For the same molecule, in test [2], the “IC50, IL-17 release, PBMC D840” value was 24.2 nM and the “fold ctrl, IL-17 release” value was determined as 4.1 fold. For the same molecule, in test [3], the half-inhibitory concentration (IC50) stood at 6.6 nM. In addition, in [5], the “EC50 (read off the curve)” value was roughly 1 nM. Besides, the fold ctrl in [7] came to 0.3 fold.

B4: CD4#8-35GS-IL12Rb2#2 (bispecific antibody)
chain: EVQLVESGGGSVQPGGSLTLSCGTSGRTFNVMGWFRQAPGKEREFVAAVRWSSTGIYYTQYADSVKSRFTISRDNAKNTVYLEMNSLKPEDTAVYYCAADTYNSNPARWDGYDFRGQGTLVTVSSGGGGSGGGGSGGGGSGGGGSGGGGSGGGGSGGGGSEVQLVESGGRLVQAGDSLRLSCAASGRTFTSYRMGWFRQAPGKEREFVSALRWSSGNIDYTYYADSVKGRFSISGDYAKNTVYLQMNSLKAEDTAVYYCAASTRWGVMESDTEYTSWGQGTLVTVSS
notes: defined by its make-up
In the case of B4, in [8], the 50% effective concentration (EC50 (read off the curve)) is roughly 1 nM. In test [9], the “IC50, IFNγ release, PBMC D840” value is 2.1 nM; the “IC50, IFNγ release, T cells D839” value amounted to 0.76 nM; the “fold ctrl, IFNγ release, PBMC D840” value is 8 fold; the “fold ctrl, IFNγ release, T cells D839” value came to 130 fold. Besides, the fold ctrl in [10] was 0.6 fold. Further, in test [11], the concentration for a half-maximal effect (EC50 (read off the curve)) is roughly 1 nM. In addition, the half-inhibitory concentration (IC50) in test [12] is 25 nM.

B5: IL23R#20-35GS-CD4#8 (bispecific antibody)
chain: EVQLVESGGGLVQAGGSLRLSCAASGRTFSSYAMGWFRQAPGKDREFVAAISWIGESTYYADSVKGRFTISRDNAKNTVYLRMNSLKPEDTAVYYCAADLYYTAYVAAADEYDYWGQGTLVTVSSGGGGSGGGGSGGGGSGGGGSGGGGSGGGGSGGGGSEVQLVESGGGSVQPGGSLTLSCGTSGRTFNVMGWFRQAPGKEREFVAAVRWSSTGIYYTQYADSVKSRFTISRDNAKNTVYLEMNSLKPEDTAVYYCAADTYNSNPARWDGYDFRGQGTLVTVSS
notes: also called BI#43; T023200043
Consider B5, for which the concentration for a half-maximal effect (EC50 (read off the curve)) in test [1] and in test [5] was roughly 1 nM in each case. Also, in test [3], the IC50 was determined as 11 nM. Besides, the fold ctrl in test [4] is 1.5 fold.

Source of the values: patent publication US20160251440A1 (Ablynx, published 2016).
